Patent US20260070974A1 (NONA BIOSCIENCES SUZHOU, published 2026)
“And” between values parts separate entries of the source, which are not always exact repeats. Equal values may be shown once.

T1: human Siglec-15 ECD-his protein (Acrobiosystems, Cat #: SG5-H52H3) (human, UniProt Q6ZMC9 20-263)
T1 construct: Bought protein; only its extracellular domain stood in the assay; also called human Siglec-15 protein; recombinant human Siglec-15 protein; not shown: his tag
T1 sequence: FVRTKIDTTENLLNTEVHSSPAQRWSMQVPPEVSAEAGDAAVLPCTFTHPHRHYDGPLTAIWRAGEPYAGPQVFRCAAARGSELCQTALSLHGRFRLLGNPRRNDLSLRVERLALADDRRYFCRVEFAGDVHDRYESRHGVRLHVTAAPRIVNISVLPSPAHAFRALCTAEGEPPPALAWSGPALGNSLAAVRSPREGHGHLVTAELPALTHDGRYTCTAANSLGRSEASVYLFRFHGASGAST

T2: human Siglec-4a-his protein (Acrobiosystems, Cat MAG-H52H8) (human, UniProt P20916 20-516)
T2 construct: Bought protein; not shown: his tag
T2 sequence (looked up): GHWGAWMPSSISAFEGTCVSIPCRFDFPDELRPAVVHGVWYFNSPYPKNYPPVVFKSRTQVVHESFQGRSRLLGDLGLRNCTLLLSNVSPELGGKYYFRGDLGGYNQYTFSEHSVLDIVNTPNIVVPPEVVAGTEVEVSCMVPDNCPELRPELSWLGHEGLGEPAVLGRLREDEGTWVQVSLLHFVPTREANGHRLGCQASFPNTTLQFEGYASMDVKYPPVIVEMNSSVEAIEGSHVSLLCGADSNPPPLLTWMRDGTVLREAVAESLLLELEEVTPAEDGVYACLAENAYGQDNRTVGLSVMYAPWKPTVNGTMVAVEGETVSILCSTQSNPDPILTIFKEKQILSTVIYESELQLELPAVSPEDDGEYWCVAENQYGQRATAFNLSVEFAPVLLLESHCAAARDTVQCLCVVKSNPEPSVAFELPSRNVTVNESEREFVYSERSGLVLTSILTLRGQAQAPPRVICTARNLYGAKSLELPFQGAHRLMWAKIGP


Legend:
[1] = biological target: T1, human Siglec-15 ECD-his protein …; test: ELISA, coated human Siglec-15 ECD-his
Description: […] human Siglec-15 ECD-his protein (Acrobiosystems, Cat #: SG5-H52H3) dissolved in PBS was added to an ELISA plate at 100 μL/well for coating and the plate was incubated overnight at 4° C. The ELISA plate was then blocked with PBST (PBS+0.05% Tween 20) containing 2% BSA at 200 μL/well and incubated at 37° C. for 1 h. The ELISA plate was washed 4 times with PBST. The anti-Siglec-15 antibody diluted in a gradient (5-fold dilution, starting concentration: 6.67 nM) was added to the ELISA plate at 100 μL/well and the plate was incubated at 37° C. for 1 h. The ELISA plate was washed 4 times with PBST. The goat anti-human IgG (H+L)-HRP (1:5000, Jackson, Cat #: 109-035-088) was added at 100 μL/well and the plate was incubated at 37° C. for 1 h. The ELISA plate was washed 4 times with PBST. The TMB substrate (Biopanda, Cat #: TMB-S-003) was added at 100 μL/well, and the plate was incubated at room temperature for 5 min, and then the stop buffer (Solarbio, Cat #: C1058) was added at 100 μL/well to stop the reaction.

[2] = biological target: T2, human Siglec-4a-his protein …; test: ELISA on coated human Siglec-4a-his, antibody at 100 nM and 10 nM, goat anti-human IgG-HRP, OD450
Description: Human Siglec-15 ECD-his protein (Acrobiosystems, Cat SG5-H52H3), human Siglec-2-his protein (Acrobiosystems, Cat CD2-H52H8), human Siglec-4a-his protein (Acrobiosystems, Cat MAG-H52H8), human Siglec-3-his protein (Acrobiosystems, Cat CD3-H5226), human Siglec-10-his protein (Acrobiosystems, Cat SIO-H52H9), and human PD-L1/B7-H1-his protein (Acrobiosystems, Cat PD1-H5229), each at 1 μg/mL and dissolved in PBS, were each added to an ELISA plate at 100 μL/well for coating and the plate was incubated overnight at 4° C. The ELISA plate was then blocked with PBST (PBS+0.05% Tween 20) containing 2% BSA at 200 μL/well and incubated at 37° C. for 1 h. The ELISA plate was washed 4 times with PBST. The anti-Siglec-15 antibody diluted in a gradient (concentrations: 100 nM and 10 nM) was added to the ELISA plate at 100 μL/well and the plate was incubated at 37° C. for 1 h. The ELISA plate was washed 4 times with PBST. The goat anti-human IgG (H+L)-HRP (1:5000, Jackson, Cat 109-035-088) was added at 100 μL/well and the plate was incubated at 37° C. for 1 h. The ELISA plate was washed 4 times with PBST. The TMB substrate (Biopanda, Cat TMB-S-003) was added at 100 μL/well, and the plate was incubated at room temperature for 5 min, and then the stop buffer (Solarbio, Cat #: C1058) was added at 100 μL/well to stop the reaction.

Row | Binder | EC50 [1] | binding result [2]
1 | PR300066 (Tab) (antibody, human IgG1, kappa, V domains shown, variable region from clone 5G12 of WO 2018/057735A1, on human IgG1/kappa constant regions; also called 5G12) VH: QVQLQQPGAELVKPGASVKMSCKASGYTFTSYWITWVIQRPGQGLEWIGDIYCGSDTMHYNEKFKNKATLTVDTSSSTAYMQLSSLTSEDSAVYYCARWWDYGSSYDYFDYWGQGTTLTVSS VL: DIKMTQSPSSMYASLGERVTITCKASQDINSYLSWFQQKPGKSPKTLIYRANRLVDGVPSRFSGSGSGQDYSLTISSLEYEDMGIYYCLQYDEFPYTFGGGTKLEIKR | 0.022 nM and 0.021 nM and 0.012 nM | no binding (tested: 100 nM)
2 | PR301285 (antibody, human IgG1, kappa, V domains shown) VH: QVQLQESGPGLVKPSETLSLTCTVSGGSMISYYWSWLRQPPGKGLEWIGYIYYSGNTNYNPSLKSRITIAVDTSKNQFSLKLNSVTAADTAVYYCARERELHPYYFDYWGQGTLVTVSS VL: DIQLTQSPSFLSASVGDRVTITCRASQGIDNYLAWYQQKPGKAPKVLIYAASTLQSGVPSRFSGSGSGTEFTLTISSLQPEDFATYYCQQLNSYPLTFGGGTKVEIKR | 0.031 nM | no binding (tested: 100 nM)

Next, values leading:

Row | EC50 [1] | binding result [2] | Binder
3 | 0.027 nM and 0.018 nM and 0.022 nM | no binding (tested: 100 nM) | PR301286 (antibody, human IgG1, kappa, V domains shown, Parent of the PTM variants PR301286-1, -3, -5, -6, -7) VH: QVQLVESGGGVVQPGKSLRLSCAASGFTFSSYGMHWVRQAPGKGLEWVAVIWIDGSNRYYAASVKGRFTISRDNSKNTLYLQMNSLRAEDTAVYYCTRGYGDYAYVMDVWGQGASVTVSS VL: DIVMTQSPLSLPVTPGEPASISCRSSQSLLPGNGYNYLDWYLQKPGQSPQLLIYLGSNRASGVPDRFSGSGSGTDFTLKISRVEAEDVGIYYCMQALQSPLTFGGGTKVEIKR
4 | 0.027 nM and 0.058 nM | no binding (tested: 100 nM) | PR301289 (antibody, human IgG1, kappa, V domains shown, Parent of the PTM variants PR301289-1 and -2) VH: QVQLVQSGAEVKKPGASVKVSCRASGYTFTSYDINWVRQATGQGLEWMGWMNPHSGDTGYAQNFQGRVTMTWNTSISTAYMELSSLRSEDTAVYYCARRRVGVYYYGMDVWGQGTTVTVSS VL: ENVLTQSPGTLSLSPGERATLSCRASQSVSSSYFGWYQQKPGQAPRLLIYGASSRATGIPDRFSGSGSGTDFTLTISRLEPEDFAVYYCQQYGSSPITFGQGTRLEIKR
